Test results: US20240101667A1, “METHODS FOR IDENTIFYING LILRB-BLOCKING ANTIBODIES” (THE BOARD OF REGENTS OF THE UNIVERSITY OF TEXAS SYSTEM, priority 2020, published 2024)

How the values were obtained:
Type in all cases: in vivo, mouse
[1] = tested on: MLL-AF9 AML cells expressing B3-FL or B3delICD; assay: Immuno-competent mice transplanted with MLL-AF9 AML cells expressing B3-FL or B3delICD; settings: versus control IgG
Text: (§1) FIGS. 7A-N. Blocking anti-LILRB3 antibody prevents monocytic AML development. (FIG. 7A) Epitope binning of 30 high-affinity IgGs. (FIG. 7B) CFU assay of mouse MLL-AF9 AML cells in the presence of above IgGs (n=3 independent experiments). (FIG. 7C) Binding affinities of the two IgGs from bin #3. (FIG. 7D) Upper: Schematic of treatment. Lower: Percentages of GFP^+ MLL-AF9 mouse AIL cells in peripheral blood (PB), bone marrow (BM), spleen (SPL), and liver (LV) of mice transplanted with AML cells expressing B3-FL or B3delICD and injected with IgG or anti-LILRB3 #1 N297A (n=3 independent mice). (FIG. 7E) Overall survival of mice transplanted with indicated AML cells as above. (FIG. 7F) CFU assay of MLL-AF9 mouse AML cells expressing B3-FL or B3delICD in the presence of IgG or anti-LILRB3 #1 N297A (n=3 independent experiments) (FIG. 7G) Upper: Schematic of treatment. Recipient mice were injected with mouse IgG or anti-mCD8 to deplete CD8 T cells. Lower: Percentages of GFP^+ MLL-AF9 mouse AML cells in peripheral blood (PB), bone marrow (BM), spleen (SPL), and liver (LV) of mice transplanted with AML cells expressing B3-FL or B3delICD and injected with IgG or anti-LILRB3 #1 LALAPG (n=4 mice). (FIG. 7H) Survival of mice as in panel h (n=4 independent mice). (FIG. 7I) Upper: Schematic of treatment. Lower: Whole-body images of NSG mice transplanted with luciferase-expressing THP-1 cells and treated with IgG or anti-LILRB3 #1 N297A (#1NA). (FIG. 7J) Overall survival of the mice shown in panel h (n=3 independent mice). (FIG. 7K) Upper: Schematic of treatment. Lower: Whole-body images of NSG mice transplanted with luciferase-expressing Molm13 cells, injected with activated T cells, and treated with IgG or #1NA. (FIG. 7L) Luciferase signaling as a function of time in mice treated as described in panel k. (FIG. 7M) Overall survival of mice treated as described in panel k (n=3 independent mice). […] The data are presented as mean±s.e.m, and p values were calculated by two-tailed t-test except for FIG. 7E, FIG. 7H, FIG. 7J and FIG. 7M by log-rank test. […]

[2] = tested on: THP-1 cells; assay: NSG mice xenografted with THP-1 cells
Text: as §1, with “mice).” for “mice). (FIG. 7H) Survival of mice as in panel h (n=4 independent mice). (FIG. 7I) Upper: Schematic of treatment. Lower: Whole-body images of NSG mice transplanted with luciferase-expressing THP-1 cells and treated with IgG or anti-LILRB3 #1 N297A (#1NA). (FIG. 7J) Overall survival of the mice shown in panel h (n=3 independent mice). (FIG. 7K) Upper: Schematic of treatment. Lower: Whole-body images of NSG mice transplanted with luciferase-expressing Molm13 cells, injected with activated T cells, and treated with IgG or #1NA. (FIG. 7L) Luciferase signaling as a function of time in mice treated as described in panel k. (FIG. 7M) Overall survival of mice treated as described in panel k (n=3 independent mice).”

[3] = tested on: Molm13 AML cells; assay: NSG mice with Molm13 AML cells and activated human T cells
Text: FIGS. 7A-N. Blocking anti-LILRB3 antibody prevents monocytic AML development. (FIG. 7A) Epitope binning of 30 high-affinity IgGs. (FIG. 7B) CFU assay of mouse MLL-AF9 AML cells in the presence of above IgGs (n=3 independent experiments). (FIG. 7C) Binding affinities of the two IgGs from bin #3. (FIG. 7D) Upper: Schematic of treatment. Lower: Percentages of GFP^+ MLL-AF9 mouse AIL cells in peripheral blood (PB), bone marrow (BM), spleen (SPL), and liver (LV) of mice transplanted with AML cells expressing B3-FL or B3delICD and injected with IgG or anti-LILRB3 #1 N297A (n=3 independent mice). (FIG. 7E) Overall survival of mice transplanted with indicated AML cells as above. (FIG. 7F) CFU assay of MLL-AF9 mouse AML cells expressing B3-FL or B3delICD in the presence of IgG or anti-LILRB3 #1 N297A (n=3 independent experiments) (FIG. 7G) Upper: Schematic of treatment. Recipient mice were injected with mouse IgG or anti-mCD8 to deplete CD8 T cells. Lower: Percentages of GFP^+ MLL-AF9 mouse AML cells in peripheral blood (PB), bone marrow (BM), spleen (SPL), and liver (LV) of mice transplanted with AML cells expressing B3-FL or B3delICD and injected with IgG or anti-LILRB3 #1 LALAPG (n=4 mice). (FIG. 7H) Survival of mice as in panel h (n=4 independent mice). (FIG. 7I) Upper: Schematic of treatment. Lower: Whole-body images of NSG mice transplanted with luciferase-expressing THP-1 cells and treated with IgG or anti-LILRB3 #1 N297A (#1NA). (FIG. 7J) Overall survival of the mice shown in panel h (n=3 independent mice). (FIG. 7K) Upper: Schematic of treatment. Lower: Whole-body images of NSG mice transplanted with luciferase-expressing Molm13 cells, injected with activated T cells, and treated with IgG or #1NA. (FIG. 7L) Luciferase signaling as a function of time in mice treated as described in panel k. (FIG. 7M) Overall survival of mice treated as described in panel k (n=3 independent mice). (FIG. 7N) Analyses of T cells in peripheral blood of mice treated as described in panel 1 at 22 days after Molm13 AML cell transplantation. Upper: Flow cytometry analyses. Lower: Plot of T cell percentages (n=3 independent mice). The data are presented as mean±s.e.m, and p values were calculated by two-tailed t-test except for FIG. 7E, FIG. 7H, FIG. 7J and FIG. 7M by log-rank test.
Mice. C57BL/6J and NOD-SCID IL2Rγ-null (NSG) mice were purchased from and maintained at the animal core facility of the University of Texas Southwestern Medical Center. GFP-specific TCR mice (Jedi mice, JAX lab stock No: 028062) were purchased from the Jackson Lab. C57BL/6J CD45.1 mice were injected intraperitoneally with 1×10^6 irradiated MLL-AF9 mouse AML cells (3000 cGy) and LPS or LPS alone as a control. The injection was repeated 10 days later. […]

[4] = Myeloid LysM-Cre driven LILRB3-transgenic C57BL/6 mice, hematopoiesis
Description: FIGS. S7A-C. […] (FIG. S7a) Schematic of generation of myeloid-specific LILRB3 transgenic mice. (FIGS. S7b-c) LILRB3 is expressed on myeloid cells in peripheral blood (PB), spleen (SPL) and bone marrow (BM) of LysM-Cre driven LILRB3 transgenic mice, which were treated by anti-LILRB3 #1 antibody (n=2 mice) or IgG (n=3 mice). Shown are representative flow cytometry plots (FIG. S7b) and result summary (FIG. S7c).
LILRB3 transgenic mice. LILRB3 cDNA was constructed into pR26 CAG AsiSI/MluI. Then the plasmid was purified with high concentration in the absence of endotoxin. Cas9 RNA, gRNA targeting mouse Rosa26 locus and the LILRB3 plasmid co-injected into mouse oocytes at the transgenic core facility of UTSW. The LILRB3 positive mice were identified by LILRB3 specific primers and crossbred with LysMcre mice (JAX, 004781). The LILRB3^+LysMcre^+ mice were analyzed with co-expression of LILRB3 and Mac-1 or Gr-1 in peripheral blood, spleen and bone marrow.

B1: anti-LILRB3 #1 N297A: IgG #1 with Fc glycosylation N297A mutation, defective Fc-mediated effector functions (antibody, V domains shown)
VH: EVQLVESGGGVVQPGRSLRLSCAASGFTFSSYGMHWVRQAPGKGLEWVAFIRYDGSNKYYADSVKGRFTISRDNSKNTLYLQMNSLRAEDTAVYYCAKAGFSGWYYYGMDVWGQGTMVTVSS
VL: DIVMTQSPSSLSASVGDRLTITCRASQSISTYLNWYQQKPGKAPKLLIYGASSLQSGVPSRFSGSGSGTDFTLTISSLQPEDFATYFCQQSYGLPLTFGGGTKVDIK
B3del ICD AML development [1]: no detectable difference
development of LILRB3-expressing (B3-FL) AML [1]: significantly delayed development of LILRB3-expressing AML
leukemia development ([2]; NSG mice, THP-1 xenograft, versus controls): significantly delayed leukemia development
LILRB3 signaling in THP-1 cells (NF-κB target gene expression by qPCR) ([2]; THP-1 cells from BM of xenografted NSG mice): decreased
effect on mice without the injection of T cells ([3]; no T cells): little effect
T cells in treated mice ([3]; peripheral blood, 22 days after Molm13 transplantation, versus IgG): significantly more T cells
leukemia in one of the treated mice ([3]; with activated human T cells): largely eliminated
leukemia progression ([3]; with activated human T cells, antibody at day 8, versus IgG): significantly slower
normal hematopoiesis and leukocytosis ([4]; LILRB3 transgenic mice): did not affect normal hematopoiesis and leukocytosis
toxicity ([4]; suggested from the transgenic mice): low toxicity
